Substitutions are numbered along the chain they refer to.
B1: anti-Tie1 antibody s-B2, IgG (antibody, V domains shown)
VH: EVQLLESGGGLVQPGGSLRLSCAASGFTFSIYGMAWVRQAPGKGLEWVSVISPSGGQTFYADSVKGRFTISRDNSKNTLYLQMNSLRAEDTAVYYCARVYYYGMDVWGQGTTVTVSS
VL: DIQMTQSPATLSLSPGERATLSCRASQSVSSYLAWYQQKPGQAPRLLIYDASNRATGIPARFSGSGSETDFTLTISSLEPEDFAVYYCQQRSKWPRTFGQGTKLEIK
notes: VH entry is a raw phagemid read that runs into CH1
B2: anti-Tie1 antibody s-D11, IgG (antibody, V domains shown)
VH: EVQLLESGGGLVQPGGSLRLSCAASGFTFSGYAMWWVRQAPGKGLEWVSSISPSGGATAYADSVKGRFTISRDNSKNTLYLQMNSLRAEDTAVYYCARDAGSYYWGWFDPWGQGTLVTVSS
VL: B1 VL with V29I, A43P, N53S, A55V, S67F, E68G, Q89L, K93S
notes: VH entry is a raw phagemid read that runs into CH1; also called Di1
B3: anti-Tie1 antibody G2, IgG (antibody, V domains shown)
VH: EVQLLESGGGLVQPGGSLRLSCAASGFTFSSYKMGWVRQAPGRGLEWVSSIYPSGGWTHYADSVKGRFTISRDNSKNTLYLQMNSLRAEDTAVYYCARVLLHYFDYWGQGTLVTVSS
VL: QSVLTQPASVSGSPGQSITISCTGTSSDVGGYKYVSWYQQHPGKAPKLIISDVNNRPSGVSDRFSGSKSGNTASLTISGLQAEDDGDYYCSSYASSSYTSSTTWVFGG
notes: VL entry is lambda and stops within FR4

Tests used:
[1] = biological target: T1, V5-tagged full length human Tie1 expressed in COS1 cells (pcDNA3-Tie1-V5) (human, UniProt P35590 25-1138); experiment: Western blot, Tie1-V5-transfected COS1 cells
T1 construct: Cell lysates in Western blot and immunoprecipitation, fixed cells in immunofluorescence; also called Tie1-transfected; transfected Tie1
T1 sequence (P35590 25-1138): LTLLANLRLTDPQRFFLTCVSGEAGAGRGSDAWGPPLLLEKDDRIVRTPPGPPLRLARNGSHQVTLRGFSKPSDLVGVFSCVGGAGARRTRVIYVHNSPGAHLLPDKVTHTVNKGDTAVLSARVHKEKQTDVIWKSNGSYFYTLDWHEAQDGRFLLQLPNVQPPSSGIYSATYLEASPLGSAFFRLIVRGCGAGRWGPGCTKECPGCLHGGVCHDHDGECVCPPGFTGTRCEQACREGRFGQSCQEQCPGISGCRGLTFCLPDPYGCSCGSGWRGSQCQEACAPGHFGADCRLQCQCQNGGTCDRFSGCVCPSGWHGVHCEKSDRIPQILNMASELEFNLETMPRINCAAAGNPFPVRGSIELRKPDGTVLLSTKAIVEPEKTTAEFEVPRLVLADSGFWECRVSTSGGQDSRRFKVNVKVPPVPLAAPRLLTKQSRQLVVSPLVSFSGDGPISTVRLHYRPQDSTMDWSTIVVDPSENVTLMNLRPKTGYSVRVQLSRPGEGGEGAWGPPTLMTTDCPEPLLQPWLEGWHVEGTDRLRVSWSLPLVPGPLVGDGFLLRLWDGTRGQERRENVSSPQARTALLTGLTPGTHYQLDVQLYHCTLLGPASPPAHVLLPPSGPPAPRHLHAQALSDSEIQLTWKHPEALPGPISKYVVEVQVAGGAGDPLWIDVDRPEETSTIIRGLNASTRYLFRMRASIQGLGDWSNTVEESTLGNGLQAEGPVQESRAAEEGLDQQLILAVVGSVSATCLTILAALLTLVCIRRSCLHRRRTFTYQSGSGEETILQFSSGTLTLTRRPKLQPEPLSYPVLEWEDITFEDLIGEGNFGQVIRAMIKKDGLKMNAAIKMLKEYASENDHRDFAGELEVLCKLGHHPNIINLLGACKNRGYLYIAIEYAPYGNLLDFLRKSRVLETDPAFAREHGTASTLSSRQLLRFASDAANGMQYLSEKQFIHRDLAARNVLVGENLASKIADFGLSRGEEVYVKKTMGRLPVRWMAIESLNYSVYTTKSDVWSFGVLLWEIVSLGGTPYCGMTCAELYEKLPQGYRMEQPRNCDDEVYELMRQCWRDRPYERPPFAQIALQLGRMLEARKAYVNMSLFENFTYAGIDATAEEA
Description: (§1) COS1 cells were transfected with pcDNA3-Tie1-V5 (1 μg DNA per 10 cm cell culture plate) using FUGENE 6 (Roche) according to manufacturer's instruction and incubated for 48 h before stimulation. For immunoprecipitation, Tie1 transfected cells and HMVEC cells were lysed in DOC-RIPA lysis buffer (50 mM Tris-HCl pH 8.0, 150 mM NaCl, 1% Triton-X-100, 0.1% SDS, 1% DOC, 10 mM EDTA) supplemented with aprotinin, leupeptin, PMSF and sodium vanadate. Immunoprecipitation was carried out from equal amount of cell lysates by incubating with polyclonal anti-human Tie1 antibodies (R&D), monoclonal anti-V5 antibodies (Invitrogen) or altogether 23 anti-Tie1 antibodies (1 μg/ml) for 1 to 2 h followed by incubation with protein G-Sepharose (Amersham Pharmacia Biotech AB) for 1 h. The immunoprecipitates were washed twice with PBS-T and twice with PBS, followed by elution with the Laemmli buffer and separation in 8% SDS-PAGE. The blots were probed with the 23 anti-Tie1 antibodies (5 μg/ml) and subsequently anti-human Fc antibodies conjugated with HRP.
(§2) Next, to find out if the anti-Tie1 antibodies recognize Tie1 in living cells, those cells were studied by immunofluorescence staining.

[2] = biological target: T2, endogenous human Tie1 (primary human endothelial cells, HUVEC, human tissue sections, SW480 cells) (human, UniProt P35590 25-1138); experiment: Western blot, HDMEC; Western blot, HDMEC
T2 construct: also called endogenous Tie1; HDMEC
T2 sequence (P35590 25-1138): as above
Description: as §1, §2

[3] = biological target: T2, endogenous human Tie1 (primary human …); experiment: immunofluorescence, HDMEC

Binder | binding result [1] | binding result [2] | binding result [3]
B1 | binds | binds | –
B2 | binds | binds | –
B3 | binds | – | binds

From US20050136053A1 (DYAX, published 2005)
